# Data taken from patent publication US20080280298A1, “SATB1: A DETERMINANT OF MORPHOGENESIS AND TUMOR METASTASIS” (The Regents of the University of California, priority 2005, published 2008).
# B1: SATB1-shRNA1: shRNA against the SATB1 coding region, target GGATTTGGAAGAGAGTGTC (SEQ ID NO: 8); SEQ ID NOs: 4/5, expressed from pSUPER-puro (nucleic acid)
# chain 1: GATCCCCGGATTTGGAAGAGAGTGTCTTCAAGAGAGACACTCTCTTCCAAATCCTTTTTGGAAA
# chain 2: AGCTTTTCCAAAAAGGATTTGGAAGAGAGTGTCTCTCTTGAAGACACTCTCTTCCAAATCCGGG
# modifications: target site or template, no part of the molecule
# B2: SATB1-shRNA2: shRNA against the SATB1 3′UTR, target GTCCACCTTGTCTTCTCTC (SEQ ID NO: 9); SEQ ID NOs: 6/7, expressed from pSUPER-puro (nucleic acid)
# chain 1: GATCCCCGTCCACCTTGTCTTCTCTCTTCAAGAGAGAGAGAAGACAAGGTGGACTTTTTGGAAA
# chain 2: AGCTTTTCCAAAAAGTCCACCTTGTCTTCTCTCTCTCTTGAAGAGAGAAGACAAGGTGGACGGG
# modifications: the letters are possibly those of the target site
# Assays:
# [1] = tested on: MDA-MB-231 cells; assay: Cell morphology and immunostaining in 3D Matrigel culture; type: cell-based, human; details: F-actin, β-catenin, integrin α6 immunostaining
# Description: Changes in cell morphology. Referring now to FIG. 5, phase contrast micrographs of MDA-MB-231 control cells (control shRNA) or SATB1-shRNA1 MDA cells (SATB1-shRNA1) cultured on plastic (2D) and matrigel (3D) are shown. Major differences in cell morphology were observed when SATB1-shRNA1 MDA cells were grown in 3D culture, compared to control cells. The cell morphology was changed from stellate-like scattered (MDA-MB-231 with control shRNA) to spherical structures (MDA-MB-231 with SATB1-shRNA). […] In addition, MDA-MB-231 cells expressing SATB1-shRNA were able to basally deposit and organize a basement membrane on Matrigel, showing the characteristic acini formation, even though there was a minor difference in morphology as observed in MCF10A control cells.
# Immunostaining of cells in culture. Total 1×10^4 cells mixed with Matrigel (5 mg/mL) were plated in 6-well plates pre-coated in a thick layer (1 mm) of Matrigel. Solidified Matrigel was overlaid with Growth medium (DMEM), and renewed at every 4 days. Colony formation and cell morphology was observed under light microscopy after 3 days to 14 days.
# Cells were fixed in 4% paraformaldehyde, permeablized in 0.1% Triton X100, and blocked in 5% BSA. […] Staining was detected with secondary Alexa Fluor 488 and/or Alexa Fluor 594 Abs (Molecular Probes). […]
# [2] = tested on: MDA-MB-231 cells; assay: Tumor growth in mammary fat pads of athymic nude mice; type: in vivo, mouse; details: 6 mice, clone or pool of cells; controls formed large tumors within 39 days (6/6)
# Excerpt: We injected control and SATB1-shRNA1 cells into the fourth mammary fat pads of athymic nude mice and monitored tumor growth.
# [3] = tested on: MDA-MB-231 cells; assay: Boyden chamber invasion assay; type: cell-based, human; details: remaining invasiveness
# Description: Boyden chamber assay. Boyden chamber chemo-migration assays were performed using a 24-well chemotaxis chamber (BD biosciences, Inc.). Breast cancer cells were seeded in triplicate at 50,000 cells/well onto the upper chambers with a 8 μm polycarbonate filter membrane coated with diluted Matrigel (10-25%) (BD biosciences, Inc.), and incubated at 37° C. in humidified 5% CO2 for 20 hrs. Conditioned media derived from NIH3T3 fibroblast cultures was used as a chemoattractant in the lower chambers. The migrated cells on underside of chambers were fixed in 10% (wt/vol) buffered-formalin and stained with crystal violet. After removal of cells remaining in the top chamber with a cotton swab, the numbers of cells that had migrated through the pores were assessed by light microscopy.
# [4] = tested on: MDA-MB-231 cells; assay: Gene expression profiling (Affymetrix and Codelink microarrays); type: cell-based, human; details: >1.5-fold, under both plastic and Matrigel culture, versus control shRNA
# Excerpt: We performed gene expression profiling on MDA-MB-231 cells expressing either control shRNA or SATB1-shRNA1 grown in culture. […] We also categorized those affected genes based on the gene ontology (GO)(URL: <http//www.geneontology.org/index.shtml>) annotation.
# [5] = tested on: MDA-MB-231 cells; assay: Cell growth assay on plastic (2D) and Matrigel (3D); type: cell-based, human; details: 2D and 3D cultures up to 11 days, compared with parental cell line and control cells
# Excerpt: Reduction of cell proliferation rate. We examined whether loss of SATB1 expression affects cancer cell proliferation by culturing SATB1-shRNA1 MDA and SATB1-shRNA2 MDA cells on plastic dish {two-dimensional (2D) culture} or on a reconstituted basement membrane derived from Engelbreth-Holm-Swarm Tumor (Matrigel™) {three-dimensional (3D) culture}.
# Cell Growth Assay. […] Growth medium were renewed every 4 days. Cells were harvested by trypsin treatment, and counted at each time point using a cell counter (Beckman Coulter, Inc.; Fullerton, Calif.) and haematocytometer. […] Cells were treated with dispase (BD Biosciences, Inc.) for 2 h at 37° C. to be isolated from Matrigel, incubated with trypsin for further 5 min, and counted using a haematocytometer. […]
# [6] = tested on: SATB1; assay: SATB1 expression in MDA-MB-231 cells stably transfected with shRNA (Western blot, real-time RT-PCR); type: cell-based, human; details: for Expression of SATB1 was lowered by / SATB1 expression levels: MDA-MB-231 cells stably expressing the shRNA; for SATB1 expression levels: remaining expression; for SATB1 expression (in words): Western blot and quantitative RT-PCR, compared to parental MDA-MB-231 cells
# Description: It was then tested whether suppression of SATB1 level in the highly metastatic MDA-MB-231 cells would affect their aggressiveness. Short hairpin-interfering RNAs (shRNA) were successfully designed to target SATB1 expression and are identified herein as SEQ ID NOs: 4-7.
# Two shRNAs were designed according to SATB1 sequence (GenBank Accession No. NM_002971, hereby incorporated by reference) using siRNA Target Finder (Ambion, Austin, Tex.); The sequences of each oligoduplex were targeted as follows: shRNA2423, 5′-GGATTTGGAAGAGAGTGTC-3′ (SEQ ID NO: 8), or shRNA2595, 5′-GTCCACCTTGTCTTCTCTC-3′ (SEQ ID NO: 9). The oligoduplexes were cloned into the plasmid pSUPER (Oligoengine, Seattle, Wash.). Prepared DNAs were transfected into the aggressive breast cancer cell line MDA-MB-231 by lipofectamine 2000 (Invitrogen) and successfully transfected cells were selected by puromycin at 2 μg/ml or G418 at 1.5 mg/ml from 24 h after transfection. Single MDA-MB-231 cell clone stably expressing either shRNA2423 or shRNA2595 is designated SATB1-shRNA1 MDA or SATB1-shRNA2 MDA cells, respectively. For overexpression of SATB1, full length of SATB1 including 3′UTR was cloned into retroviral vector pLXSN (Clontech, Mountain View, Calif.), and the viral solution was produced using PT67 package cell lines. Hs578T cells were infected with this viral solution, and stably infected cells were selected by G418 at 0.8 mg/ml for 5 days. The status of SATB1 level in manipulated MDA-MB-231 and Hs578T cells were examined by Western blot and real-time RT-PCR.
# To evaluate the change of gene expression level depending on SATB1 status, semi-quantitative or real-time RT-PCR analysis of selected genes was performed (primer sequences are available upon request). Total RNA was extracted for cell lines using TR1 reagent (Sigma) followed by RNA clean-up with RNeasy Mini kit (Qiagen, Valencia, Calif.). For semi-quantitative RT-PCR, 5 μg of total RNA was reverse-transcribed into single stranded cDNA using Superscript II RNaseH-reverse transcriptase (Invitrogen) according to the protocol supplied with the kit. PCR cycle was controlled starting from 25 to 40 cycles upon gene-specific primers (20 ng of cDNA/reaction). Each cycle consisted of the following steps, using GeneAmp PCR system 9700 (PerkinElmer Inc., Fremont, Calif.); 94° C. for 30 s, 55° C. for 30 s, and 72° C. for 60 s. PCR products were separated on 1.5% agarose gels and visualized them by staining with ethidium bromide. SYBR Green PCR Core Reagents system was used for real-time monitoring of amplification on ABI 7500 Fast Real-time PCR System (Applied Biosystems, Foster City, Calif.). Absolute quantification method was employed to quantify target DNA fragments in triplicate with following cycling condition; 95° C. for 2 min, followed by 40 cycles of 95° C. for 3 s and 60° C. for 30 s.
# [7] = tested on: MDA-MB-231 cells; assay: Experimental metastasis assay, tail vein injection into athymic mice, lung nodules; type: in vivo, mouse; details: 1×10^6 cells i.v., nine weeks, six mice
# Description: The removal of SATB1 from MDA-MB-231 (aggressive) cells diminished metastatic activity: SATB1-shRNA1 MDA, SATB1-shRNA2 MDA, and control cells (1×10^6 cells) were injected intravenously into the lateral tail vein of 6-week-old athymic mice to evaluate metastasis of these cancer cell lines to lung. In mice, the metastasis of orthotopically grown tumors derived from human MDA-MB-231 cells is a relatively rare event. Therefore, by directly introducing cells into the circulation, we examined the requirement of SATB1 in cancer cell survival in circulation and extravasation to and growth in the lung. By nine weeks after tumor-cell injection, the lungs of mice injected with the control cells had formed numerous nodules, ranging in number from 125 to 160 per lung in all six mice analyzed (FIG. 11a,b). […]
# 1×10^6 cells MDA-MB-231 cells expressing control-shRNA, SATB1-shRNA1 or SATB1-shRNA2 MDA cells were injected into the tail veins of each mouse, and lungs were examined for metastatic nodules (arrows) 9 weeks later. […] In FIG. 11b, total numbers of metastatic lung nodules from individual mice were counted under a dissection microscope. For lungs of representative mice indicated, human SATB1 expression levels in human breast cancer cells colonized in lungs were analyzed by RT-PCR using human GAPDH as a loading control, with the use of human SATB1 and GAPDH specific oligomers. […]
molecule,measurement,setting,value
B1,cell morphology in 3D culture,[1],"organized and polarized morphology, forming acinus-like structures"
same,tumor growth in mammary fat pads,[2],either no tumors or greatly reduced tumor growth
same,invasiveness compared with host MDA-MB-231 cells,[3],20%
same,downregulated genes upon SATB1 depletion (Tree 1),[4],409 genes
same,upregulated genes upon SATB1 depletion (Tree 2),[4],456 genes
same,proliferation rates,[5],significantly reduced
same,Expression of SATB1 was lowered by,[6],70%
same,SATB1 expression levels,[6],30.4%±3.7
same,SATB1 expression (in words),[6],greatly reduced
B2,cell morphology in 3D culture,[1],"organized and polarized morphology, forming acinus-like structures"
same,invasiveness compared with host MDA-MB-231 cells,[3],20%
same,proliferation rates,[5],significantly reduced
same,lung metastases observed (in words),[7],not observed in five out of six mice
same,number of lung metastases (nodules per lung),[7]; control cells 125 to 160 per lung,five
same,Expression of SATB1 was lowered by,[6],90%
same,SATB1 expression levels,[6],12.5%±5.2
same,SATB1 expression (in words),[6],greatly reduced
